Laboratory results reported in publication PMC11547725, “Cold-Active Lipase from the Ice Cave Psychrobacter SC65A.3 Strain, a Promising Biocatalyst for Silybin Acylation” (Molecules, 2024).

Assays:
Assay in all cases: purified protein
Type in all cases: biochemical, Psychrobacter sp. SC65A.3
purified protein [1] = substrate: CCCCCCCCCCCCCCCCCC(=O)Oc1ccc([N+](=O)[O-])cc1; settings: 25 °C
purified protein [2] = substrate: CCCC(=O)Oc1ccc([N+](=O)[O-])cc1; settings: 25 °C, 50 mM Tris HCl pH 7.2, substrate in ethanol
purified protein [3] = substrate: CCCCCCCCCCCCCCCC(=O)Oc1ccc([N+](=O)[O-])cc1; settings: 25 °C, 50 mM Tris HCl pH 7.2

B1: PSL2 (Psychrobacter sp. SC65A.3) (protein)
chain: MSNSTVLSVNTLLNKAVKTLNLMSFGQDKNPKSTDINLSDEIIDIEESALQDSREDKGLSIKEKILEHHLMTNYQPHLLHYAIKSFGCLPTPILESLIKCLDGPTSKQYLHVDAHLRLILAVNSKLKTPLQLIEMSELRKRFATDAVAMQAPKVWQQASDNLLSNLKQFHKKGDSAISWQDRTITNADDGDMTIRCYQNETSDNGFGFKKEQTSNPDETVLLFFHGGGFCIGDLNTHHEFCHAICEQTGWPVISVDYRLAPEHPAPAAVRDCISAYAWLAEHCEEFGALPSRIVLAGDSAGGGLSTLMAQQIITPNKEAWLDLGDEGQKTFDILQGLPHPMAQMPLYPVTDIETDYPSWELYGEGLLLDHADVAIFDAACLENSPLPRQHILTSPMLGDNRQVCPSYVVAAELDVLRDEAFAYANQLKSFGIAVQTHTVLGAPHGFIHFMSVHQRLGQETQHIITGFANFVREIIKTRALLSA
Protein B1 has a Km (purified protein [1]; 50 mM Tris HCl pH 7.2) of 3.70 mM, a kcat/Km (purified protein [1]; 50 mM Tris HCl pH 7.2, text b41 swaps the kcat of butyrate and stearate, table value taken (fits kcat/Km)) of 13.9 M⁻¹ s⁻¹ and a Km (purified protein [2]) of 2.38 mM. The kcat/Km (purified protein [2]; text b41 swaps the kcat of butyrate and stearate, table value taken (fits kcat/Km)) was 25 M⁻¹ s⁻¹, the Km (purified protein [3]) was 4.30 mM and the kcat/Km (purified protein [3]) was 5.75 M⁻¹ s⁻¹.
